Measurements reported in PMC6004067 (Genes & Development, 2018).
Numbering of substitutions follows the chain as printed. In names and notes the source's numbering stands.

Assays:
Settings in all cases: both partners purified
[1] = target: T1, TATA-box-binding protein (TBP), full-length human (human, UniProt P20226 1-339); experiment: pull-down; Flag-tagged TFIIB or its mutants immobilized on Flag beads; TBP or SNAPc as analyte; buffer B2, 1 h at 4°C, four washes, Western blot
T1 construct: human TBP, full length; Two preparations of free TBP are described (Flag/His double-tagged; GST-TBP cleaved with thrombin); also called wild-type TBP; source: E. coli BL21 (DE3), purified (Ni-NTA as Flag- and His-tagged protein, or cut with thrombin from GST-TBP)

[2] = target: T2, GST-TBP, GST-tagged full-length human TBP (human, UniProt P20226 1-339); experiment: pull-down; GST pull-down: GST-TBP, GST-TFIIB or TBP fragments on glutathione beads; analytes in buffer B2 (150 mM NaCl), 1 h at 4°C, four washes, Western blot
T2 construct: human TBP, full length

[3] = target: T1, TATA-box-binding protein (TBP), …; experiment: as above

T1 sequence (P20226 whole entry): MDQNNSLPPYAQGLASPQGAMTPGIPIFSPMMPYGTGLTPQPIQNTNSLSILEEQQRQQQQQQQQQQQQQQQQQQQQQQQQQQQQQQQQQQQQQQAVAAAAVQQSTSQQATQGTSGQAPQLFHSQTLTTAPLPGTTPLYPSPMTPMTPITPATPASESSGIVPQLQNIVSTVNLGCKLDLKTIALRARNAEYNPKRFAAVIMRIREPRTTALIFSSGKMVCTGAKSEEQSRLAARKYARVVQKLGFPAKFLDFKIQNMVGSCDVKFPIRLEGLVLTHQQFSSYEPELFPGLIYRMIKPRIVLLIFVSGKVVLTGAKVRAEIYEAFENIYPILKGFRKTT
T2 sequence (P20226 whole entry, the tested form may be a part): as the sequence (P20226 whole entry) above

B1: TFIIB, full-length human, Flag- and His-tagged (natural protein, UniProt Q00403 1-316, looked up)
chain: MASTSRLDALPRVTCPNHPDAILVEDYRAGDMICPECGLVVGDRVIDVGSEWRTFSNDKATKDPSRVGDSQNPLLSDGDLSTMIGKGTGAASFDEFGNSKYQNRRTMSSSDRAMMNAFKEITTMADRINLPRNIVDRTNNLFKQVYEQKSLKGRANDAIASACLYIACRQEGVPRTFKEICAVSRISKKEIGRCFKLILKALETSVDLITTGDFMSRFCSNLCLPKQVQMAATHIARKAVELDLVPGRSPISVAAAAIYMASQASAEKRTQKEIGDIAGVADVTIRQSYRLIYPRAPDLFPTDFKFDTPVDKLPQL
notes: human TFIIB, full length; also called Flag-tagged TFIIB; wild-type TFIIB; source: E. coli BL21 (DE3), purified (Ni-NTA)
binding result [1]: binds
binding result [2]: binds

B2: TFIIB R169E/K188E, Flag-tagged (natural protein, human, UniProt Q00403 1-316, looked up)
chain: B1 chain with R169E, K188E
notes: human TFIIB with the double R169E/K188E substitution; Probably made as the full-length parent; also called double substitution
binding result [1]: binds

B3: GST-TFIIB (natural protein, human, UniProt Q00403 1-316, looked up)
chain: B1 chain
notes: TFIIB fused to GST
binding result [3]: binds

B4: TFIIB R169E, Flag-tagged (natural protein, human, UniProt Q00403 1-316, looked up)
chain: B1 chain with R169E
notes: human TFIIB with a single R169E substitution; Probably made as the full-length parent
binding result [1]: binds
